{
  "source": "paper doi:10.1101/2020.05.07.057075",
  "about": "(bioRxiv, 2020)",
  "binders": {"B1": {"name": "cytochrome c (Cc), recombinant, purified (natural protein)", "chain": "not shown", "modifications": "heme group"}, "B2": {"name": "NPM(225-294) construct, C-terminal globular domain (domain or fragment)", "chain": "QESFKKQEKTPKTPKGPSSVEDIKAKMQASIEKGGSLPKVEAKFINYVKNCFRMTDQEAIQDLWQWRKSL"}, "B3": {"name": "NPM oligomerization domain NPM(1-130), His-tagged (domain or fragment)", "chain": "MEDSMDMDMSPLRPQNYLFGCELKADKDYHFKVDNDENEHQLSLRTVSLGAGAKDELHIVEAEAMNYEGSPIKVTLATLKMSVQPTVSLGGFEITPPVVLRLKCGSGPVHISGQHLVAVEEDAESEDEEE"}},
  "key": {"[1]": {"biological_target": "T1, full-length nucleophosmin NPM(1-294), recombinant (UniProt P06748 1-294)", "T1 sequence (P06748 whole entry)": "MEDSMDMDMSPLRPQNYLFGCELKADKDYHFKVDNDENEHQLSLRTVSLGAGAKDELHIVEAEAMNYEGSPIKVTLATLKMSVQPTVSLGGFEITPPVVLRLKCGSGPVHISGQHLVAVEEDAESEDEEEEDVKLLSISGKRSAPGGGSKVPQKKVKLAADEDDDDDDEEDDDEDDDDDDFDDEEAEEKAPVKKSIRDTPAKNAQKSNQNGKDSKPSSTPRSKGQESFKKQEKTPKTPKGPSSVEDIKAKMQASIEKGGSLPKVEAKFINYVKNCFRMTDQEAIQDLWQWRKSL", "experiment": "negative-stain electron microscopy with 3D reconstruction"}, "[2]": {"biological_target": "T1, full-length nucleophosmin NPM(1-294), …", "experiment": "ITC"}, "[3]": {"biological_target": "NPM(123-294) construct without the oligomerization domain (UniProt P06748 123-294)", "experiment": "ITC"}, "[4]": {"biological_target": "NPM oligomerization domain core NPM(9-122) (UniProt P06748 9-122)", "experiment": "ITC"}, "[5]": {"biological_target": "B1", "experiment": "ITC"}, "SDS-PAGE": {"biological_target": "the molecule itself", "experiment": "SDS-PAGE"}},
  "note": "Several values for one entry are separate records, joined by “and”; a condition that tells them apart may be missing. Identical values can stand only once.",
  "data": [
    {"binder": "B1", "values": [
      {"measurement": "stoichiometry N", "setting": "[1]", "result": 1, "unit": "Cc per NPM pentamer"},
      {"measurement": "fold decrease of affinity (by KD) upon addition of 0.1 M KCl", "setting": "[2]", "result": 12, "unit": "fold"},
      {"measurement": "stoichiometry N", "setting": "[2]", "result": "1 Cc:NPM and 2 Cc:NPM"},
      {"measurement": "Kd", "setting": "[3]", "result": 13, "unit": "µM"},
      {"measurement": "fold decrease of affinity (by KD) upon addition of 0.1 M KCl", "setting": "[4]", "result": 3, "unit": "fold"},
      {"measurement": "stoichiometry N", "setting": "[4]", "result": "2 Cc:NPM and 1 Cc:NPM"}
    ]},
    {"binder": "B2", "values": [
      {"measurement": "Kd", "setting": "[5]", "result": "~200", "unit": "µM"}
    ]},
    {"binder": "MGRRFLVTVRIQRAGRPLQERVFLVKFVRSRRPRTAS", "note": "[p19ARF(1-37) domain]", "values": [
      {"measurement": "Kd", "setting": "[2]", "result": 0.28, "unit": "µM"},
      {"measurement": "stoichiometry N", "setting": "[2]", "result": 5.6}
    ]},
    {"binder": "B3", "values": [
      {"measurement": "stoichiometry N", "setting": "SDS-PAGE", "result": 5}
    ]}
  ]
}
